B1: KRT71 (parent)
chain: FGSRSLYSLGGVRSLNVASGSGKS

Variants of: B1
Assay: protein stability index of a GFP-peptide fusion (GPS, HEK-293T) (PSI 1-6); higher = more stable
Conditions: c terminus: a fixed tail appended
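Further: lentivirally expressed fusions sorted by FACS into six bins by GFP to DsRed ratio, PSI derived from sequencing read proportions per bin multiplied by bin number.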

Compared with FGSRSLHSLGGVRSLNVASGSGKS, FGSRSLASLGGVRSLNVASGSGKS is higher in protein stability index: 2.98 for the first, 3.46 for the second.

Going from FGSRSLFSLGGVRSLNVASGSGKS to FGSRSLTSLGGVRSLNVASGSGKS, the protein stability index falls from 3.01 to 2.55.

Going from FGSRSLDSLGGVRSLNVASGSGKS to FGSRSLMSLGGVRSLNVASGSGKS, the protein stability index falls from 3.53 to 2.54.

Going from FGSRSLNSLGGVRSLNVASGSGKS to FGSRSLVSLGGVRSLNVASGSGKS, the protein stability index falls from 3.26 to 2.83.

Compared with FGSRSLKSLGGVRSLNVASGSGKS, FGSRSLSSLGGVRSLNVASGSGKS is higher in protein stability index: 3.02 for the first, 3.89 for the second.

Going from FGSRSLISLGGVRSLNVASGSGKS to FGSRSLWSLGGVRSLNVASGSGKS, the protein stability index falls from 2.32 to 2.05.

Going from FGSRSLGSLGGVRSLNVASGSGKS to FGSRSLESLGGVRSLNVASGSGKS, the protein stability index rises from 2.81 to 4.17.

First: FGSRSLRSLGGVRSLNVASGSGKS
Second: FGSRSLPSLGGVRSLNVASGSGKS
The protein stability index of the first is lower: 3.57 for the first, 3.75 for the second.

First: FGSRSLLSLGGVRSLNVASGSGKS
Second: FGSRSLCSLGGVRSLNVASGSGKS
The protein stability index of the first is lower: 1.6 for the first, 2.48 for the second.

Going from FGSRSLQSLGGVRSLNVASGSGKS to FQSRSLYSLGGVRSLNVASGSGKS, the protein stability index falls from 3.91 to 3.09.

Going from FHSRSLYSLGGVRSLNVASGSGKS to FASRSLYSLGGVRSLNVASGSGKS, the protein stability index rises from 1.32 to 2.02.

First: FTSRSLYSLGGVRSLNVASGSGKS
Second: FPSRSLYSLGGVRSLNVASGSGKS
The protein stability index of the first is lower: 1.32 for the first, 2.07 for the second.

Going from FWSRSLYSLGGVRSLNVASGSGKS to FKSRSLYSLGGVRSLNVASGSGKS, the protein stability index rises from 1.8 to 3.75.

Compared with FCSRSLYSLGGVRSLNVASGSGKS, FSSRSLYSLGGVRSLNVASGSGKS is lower in protein stability index: 3.47 for the first, 1.99 for the second.

Going from FLSRSLYSLGGVRSLNVASGSGKS to FDSRSLYSLGGVRSLNVASGSGKS, the protein stability index rises from 2.45 to 3.02.

Going from FMSRSLYSLGGVRSLNVASGSGKS to FESRSLYSLGGVRSLNVASGSGKS, the protein stability index rises from 1.99 to 3.3.

First: FNSRSLYSLGGVRSLNVASGSGKS
Second: FYSRSLYSLGGVRSLNVASGSGKS
The protein stability index of the first is higher: 2.58 for the first, 2.08 for the second.

First: FVSRSLYSLGGVRSLNVASGSGKS
Second: FRSRSLYSLGGVRSLNVASGSGKS
The protein stability index of the first is higher: 3.98 for the first, 3.5 for the second.

Going from FISRSLYSLGGVRSLNVASGSGKS to FFSRSLYSLGGVRSLNVASGSGKS, the protein stability index rises from 1.78 to 2.33.

First: FGSRKLYSLGGVRSLNVASGSGKS
Second: FGSRNLYSLGGVRSLNVASGSGKS
The protein stability index of the first is higher: 2.65 for the first, 1.99 for the second.

Compared with FGSRYLYSLGGVRSLNVASGSGKS, FGSRWLYSLGGVRSLNVASGSGKS is higher in protein stability index: 1.36 for the first, 2.33 for the second.

Compared with FGSRQLYSLGGVRSLNVASGSGKS, FGSRRLYSLGGVRSLNVASGSGKS is higher in protein stability index: 2.16 for the first, 2.77 for the second.

Going from FGSRGLYSLGGVRSLNVASGSGKS to FGSRDLYSLGGVRSLNVASGSGKS, the protein stability index rises from 1.6 to 2.31.

First: FGSRELYSLGGVRSLNVASGSGKS
Second: FGSRMLYSLGGVRSLNVASGSGKS
The protein stability index of the first is higher: 2.77 for the first, 1.62 for the second.

Going from FGSRFLYSLGGVRSLNVASGSGKS to FGSRALYSLGGVRSLNVASGSGKS, the protein stability index rises from 1.95 to 2.35.

First: FGSRTLYSLGGVRSLNVASGSGKS
Second: FGSRPLYSLGGVRSLNVASGSGKS
The protein stability index of the first is lower: 1.64 for the first, 2.91 for the second.

Going from FGSRHLYSLGGVRSLNVASGSGKS to FGSRLLYSLGGVRSLNVASGSGKS, the protein stability index falls from 2.24 to 2.15.

Compared with FGSRILYSLGGVRSLNVASGSGKS, FGSRCLYSLGGVRSLNVASGSGKS is lower in protein stability index: 2.19 for the first, 1.5 for the second.

First: FGSRVLYSLGGVRSLNVASGSGKS
Second: NGSRSLYSLGGVRSLNVASGSGKS
The protein stability index of the first is lower: 1.9 for the first, 3.85 for the second.

Going from GGSRSLYSLGGVRSLNVASGSGKS to HGSRSLYSLGGVRSLNVASGSGKS, the protein stability index rises from 3.44 to 3.98.

Compared with KGSRSLYSLGGVRSLNVASGSGKS, VGSRSLYSLGGVRSLNVASGSGKS is lower in protein stability index: 4.06 for the first, 3.81 for the second.

Compared with SGSRSLYSLGGVRSLNVASGSGKS, MGSRSLYSLGGVRSLNVASGSGKS is lower in protein stability index: 4.56 for the first, 3.75 for the second.

Going from CGSRSLYSLGGVRSLNVASGSGKS to DGSRSLYSLGGVRSLNVASGSGKS, the protein stability index rises from 2.87 to 4.03.

Compared with LGSRSLYSLGGVRSLNVASGSGKS, QGSRSLYSLGGVRSLNVASGSGKS is higher in protein stability index: 3.43 for the first, 4.4 for the second.

Compared with AGSRSLYSLGGVRSLNVASGSGKS, EGSRSLYSLGGVRSLNVASGSGKS is lower in protein stability index: 4.02 for the first, 3.83 for the second.

First: YGSRSLYSLGGVRSLNVASGSGKS
Second: TGSRSLYSLGGVRSLNVASGSGKS
The protein stability index of the first is lower: 1.64 for the first, 3.59 for the second.

Going from PGSRSLYSLGGVRSLNVASGSGKS to IGSRSLYSLGGVRSLNVASGSGKS, the protein stability index falls from 3.92 to 3.33.

First: RGSRSLYSLGGVRSLNVASGSGKS
Second: WGSRSLYSLGGVRSLNVASGSGKS
The protein stability index of the first is higher: 3.55 for the first, 2.16 for the second.

Compared with FGPRSLYSLGGVRSLNVASGSGKS, FGVRSLYSLGGVRSLNVASGSGKS is lower in protein stability index: 2.71 for the first, 2.23 for the second.

Going from FGGRSLYSLGGVRSLNVASGSGKS to FGIRSLYSLGGVRSLNVASGSGKS, the protein stability index rises from 1.84 to 2.37.

First: FGRRSLYSLGGVRSLNVASGSGKS
Second: FGDRSLYSLGGVRSLNVASGSGKS
The protein stability index of the first is higher: 1.97 for the first, 1.43 for the second.

Going from FGERSLYSLGGVRSLNVASGSGKS to FGKRSLYSLGGVRSLNVASGSGKS, the protein stability index falls from 2.22 to 1.78.

First: FGMRSLYSLGGVRSLNVASGSGKS
Second: FGNRSLYSLGGVRSLNVASGSGKS
The protein stability index of the first is higher: 2.21 for the first, 1.26 for the second.

First: FGCRSLYSLGGVRSLNVASGSGKS
Second: FGQRSLYSLGGVRSLNVASGSGKS
The protein stability index of the first is lower: 1.56 for the first, 2.09 for the second.

First: FGARSLYSLGGVRSLNVASGSGKS
Second: FGWRSLYSLGGVRSLNVASGSGKS
The protein stability index of the first is higher: 2.19 for the first, 1.59 for the second.

Going from FGFRSLYSLGGVRSLNVASGSGKS to FGLRSLYSLGGVRSLNVASGSGKS, the protein stability index rises from 2.22 to 2.47.

Going from FGHRSLYSLGGVRSLNVASGSGKS to FGTRSLYSLGGVRSLNVASGSGKS, the protein stability index falls from 2.06 to 1.95.

Reference: the supplement of paper PMC10567573
